This assay has as its target Hedgehog acyltransferase (Hhat), triple tagged (HA-FLAG-His) WT (UniProt Q5VTY9).

Primed or numbered codes have the meaning given here. Where no end group is shown, it is not given here. PEG2′ = not defined here

UniProt Q5VTY9, sequence (Q5VTY9 whole entry): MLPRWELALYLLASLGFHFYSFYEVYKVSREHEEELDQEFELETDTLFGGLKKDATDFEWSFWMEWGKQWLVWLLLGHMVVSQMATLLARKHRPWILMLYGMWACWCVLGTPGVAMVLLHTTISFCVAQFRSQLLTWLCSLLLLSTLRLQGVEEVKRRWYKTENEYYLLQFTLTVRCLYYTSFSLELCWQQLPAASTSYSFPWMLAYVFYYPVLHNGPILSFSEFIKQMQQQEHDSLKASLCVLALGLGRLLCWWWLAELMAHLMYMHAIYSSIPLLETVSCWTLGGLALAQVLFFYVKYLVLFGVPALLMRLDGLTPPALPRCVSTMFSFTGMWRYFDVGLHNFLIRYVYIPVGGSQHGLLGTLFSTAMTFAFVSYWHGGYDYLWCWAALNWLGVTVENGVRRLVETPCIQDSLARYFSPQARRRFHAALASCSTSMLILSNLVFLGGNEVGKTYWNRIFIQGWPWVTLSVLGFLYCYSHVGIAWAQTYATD

B1: biotinylated WT Shh peptide, …-(PEG2)-K(Biotin)-NH2 (peptide)
peptide: CGPGRGFGKR-{PEG2′-K(Biotin)-NH2}
Take B1: the apparent Km for Shh peptide, Hhat-mediated NBD-fatty acylation of Shh peptide (initial rates, 10 min, 37 °C), Shh titrated in the presence of 25 μM NBD-myristoyl-CoA (14:0) came to 10.7 μM Shh; the apparent Km for Shh peptide, Hhat-mediated NBD-fatty acylation of Shh peptide (initial rates, 10 min, 37 °C), Shh titrated in the presence of 25 μM NBD-oleoyl-CoA (18:1) was found to be 19.7 μM Shh; the apparent Km for Shh peptide, Hhat-mediated NBD-fatty acylation of Shh peptide (initial rates, 10 min, 37 °C), Shh titrated in the presence of 25 μM NBD-palmitoleoyl-CoA (16:1) was found to be 5 μM Shh; the apparent Km for Shh peptide, Hhat-mediated NBD-fatty acylation of Shh peptide (initial rates, 10 min, 37 °C), Shh titrated in the presence of 25 μM NBD-palmitoyl-CoA (16:0) was 10.4 μM Shh.

These data come from publication PMC9513256.
